In paper PMC10395586:
Values joined by “and” are separate entries in the source; they are usually repeats but may differ in a detail not shown here. Equal values may be shown once. Read-outs that look alike come from different tables or passages of the source.

Legend:
Assay in all cases: native MS
[1] = target: cpTMV-S65-pAF (tobacco mosaic virus)
[2] = target: cpTMV-S65C (tobacco mosaic virus)
[3] = target: cpTMV-S65-3NY (tobacco mosaic virus)
[4] = target: cpTMV-S65-3NY (tobacco mosaic virus); remark: listed apart in the source
[5] = target: cpTMV without any mutation at the S65 position (tobacco mosaic virus)

Substance: cpTMV-S65-pAF
- monomers per disk (two-disk stack) (monomers per disk) [1]: 16 and 17

Substance: cpTMV-S65C
- monomers per disk (monomers per disk) [2]: 16

Substance: cpTMV-S65-3NY
- monomers per disk (monomers per disk) [3]: 17
- monomers per disk (monomers per disk) [4]: 16

Substance: cpTMV without any mutation at the S65 position
- monomers per disk (monomers per disk) [5]: 16
